Reference: patent US20150132269

Key:
Assay in all cases: cell_activity
ZFN 46208 (synthetic) = conditions: pair with 46209, K562
ZFN 46228 (synthetic) = conditions: pair with 46226, K562
ZFN 46801 (synthetic) = conditions: pair with 46880
ZFN 46786 (synthetic) = conditions: pair with 46880
ZFN 46934 (synthetic) = conditions: pair with 47923
ZFN 46816 (synthetic) = conditions: pair with 47923
ZFN 46180 (synthetic) = conditions: pair with 46181, K562
ZFN 46156 (synthetic) = conditions: pair with 46158, K562
ZFN 46240 (synthetic) = conditions: pair with 46241, K562
ZFN 46163 (synthetic) = conditions: pair with 46164, K562
ZFN 46216 (synthetic) = conditions: pair with 46217, K562
ZFN 47021 (synthetic) = conditions: pair with 45843
ZFN 45844 (synthetic) = conditions: pair with 45843, CD34+ cells
ZFN 46188 (synthetic) = conditions: pair with 46189, K562
ZFN 46247 (synthetic) = conditions: pair with 46246, K562
ZFN 46189 (synthetic) = conditions: pair with 46188, K562
ZFN 46880 (synthetic) = conditions: pair with 46801
ZFN 47923 (synthetic) = conditions: pair with 46801
ZFN 46217 (synthetic) = conditions: pair with 46216, K562
ZFN 46209 (synthetic) = conditions: pair with 46208, K562
ZFN 46164 (synthetic) = conditions: pair with 46163, K562
ZFN 45843 (synthetic) = conditions: pair with 45844, CD34+ cells
ZFN 46246 (synthetic) = conditions: pair with 46247, K562
ZFN 46229 (synthetic) = conditions: pair with 46230, K562
ZFN 46241 (synthetic) = conditions: pair with 46240, K562
ZFN 46230 (synthetic) = conditions: pair with 46229, K562
ZFN 46226 (synthetic) = conditions: pair with 46228, K562
ZFN 46158 (synthetic) = conditions: pair with 46156, K562, Cel-I
ZFN 46181 (synthetic) = conditions: pair with 46180, K562

GGGCTGGACAGAGGGGTCCCACAAGATC (double strand) [46208 target]
activity (ZFN 46208 (synthetic)): 28 % NHEJ

ATAGGGGTCGCGGTAGGGAGTTGTCGGC (double strand) [46228 target]
activity (ZFN 46228 (synthetic)): 37.8 % NHEJ

AAAGCAACTGTTAGCTTGCACTAGACTA (double strand) [45848/46801 target]
activity (ZFN 46801 (synthetic)): 87 % NHEJ (D0)
activity (ZFN 46786 (synthetic)): 71 % NHEJ (D0)
activity (ZFN 46934 (synthetic)): 80 % NHEJ (D0)
activity (ZFN 46816 (synthetic)): 29.9 % indels

TCATCCTGGTACCAGGAAGGCAATGGGC (double strand) [46180 target]
activity (ZFN 46180 (synthetic)): 15.2 % NHEJ

TGGCCTGGGACATTCATTATTTAGCCAC (double strand) [46156 target]
activity (ZFN 46156 (synthetic)): 30.4 % NHEJ

CTCACAGGACATGCAGCAGTGTGTGCCG (double strand) [46240 target]
activity (ZFN 46240 (synthetic)): 25 % NHEJ

TAGAATTGGCCTGGGACATTCATTATTT (double strand) [46163 target]
activity (ZFN 46163 (synthetic)): 21.9 % NHEJ

CAGGCTGGGCTGGACAGAGGGGTCCCAC (double strand) [46216 target]
activity (ZFN 46216 (synthetic)): 16.6 % NHEJ

TCACAGGCTCCAGGAAGGGTTTGGCCTC (double strand) [45844 target]
activity (ZFN 47021 (synthetic)): 82 % NHEJ (D0)
activity (ZFN 45844 (synthetic)): 78 % NHEJ (D0)

CCTGAGAAGGTGGGGAGCTCACAGCCTC (double strand) [46188 target]
activity (ZFN 46188 (synthetic)): 12.8 % NHEJ

CCGTCTACATAGAGGCCCTTCCTGCTTG (double strand) [46247 target]
activity (ZFN 46247 (synthetic)): 17.3 % NHEJ

ACACCCTGTGATCTTGTGGGACCCCTCT (double strand) [46189 target]
activity (ZFN 46189 (synthetic)): 12.8 % NHEJ

CACAGGCTCCAGGAAGGGTTTGGCCTCT (double strand) [45849/46880 target]
activity (ZFN 46880 (synthetic)): 87 % NHEJ (D0)
activity (ZFN 47923 (synthetic)): 82 % NHEJ (D0)

GTGTGCATCTTGTGTGCTTGGTCGGCAC (double strand) [46217 target]
activity (ZFN 46217 (synthetic)): 16.6 % NHEJ

GCCTGGGTGTGCATCTTGTGTGCTTGGT (double strand) [46209 target]
activity (ZFN 46209 (synthetic)): 28 % NHEJ

GAAGGGAAGTGGGTATGGGGCAGCCCAT (double strand) [46164 target]
activity (ZFN 46164 (synthetic)): 21.9 % NHEJ

AAGCAACTGTTAGCTTGCACTAGACTAG (double strand) [45843 target]
activity (ZFN 45843 (synthetic)): 78 % NHEJ (D0)

GTGTGGCTCCTTAAGGTGACCCAGCAGC (double strand) [46246 target]
activity (ZFN 46246 (synthetic)): 17.3 % NHEJ

CCTATCAGTGCCGACCAAGCACACAAGA (double strand) [46229 target]
activity (ZFN 46229 (synthetic)): 37.2 % NHEJ

TCCCCAAGGCTGTGCCCAGCCTTCAGTG (double strand) [46241 target]
activity (ZFN 46241 (synthetic)): 25 % NHEJ

TCGCGGTAGGGAGTTGTCGGCACACACT (double strand) [46230 target]
activity (ZFN 46230 (synthetic)): 37.2 % NHEJ

GTGCCGACCAAGCACACAAGATGCACAC (double strand) [46226 target]
activity (ZFN 46226 (synthetic)): 37.8 % NHEJ

TCTAGGAAGGGAAGTGGGTATGGGGCAG (double strand) [46158 target]
activity (ZFN 46158 (synthetic)): 30.4 % NHEJ

GCAATGCTTGGAGGCTGTGAGCTCCCCA (double strand) [46181 target]
activity (ZFN 46181 (synthetic)): 15.2 % NHEJ
